# Measurements as given in the RNAGym collection of RNA variant scans (doi:10.1073/pnas.2313332121).
# B1: TPR t1 (parent)
# chain: GACCAAUCUGCCCUCAGAGCUCGAGAACAUCUUCGGAUGCAGAGGAGGCAGGCUUCGGUGGCGCGAUAGCGCCAACGUCCUCAACCUCCAAUGCAUCCCACCACAUGAUGAUGCCUGAAGAGCCUUGGUUUUUUG
# Variants of: B1
# Test: polymerase ribozyme fitness, log enrichment relative to wild type (log ratio); higher = more active; in vitro selection for triplet polymerase activity
# Method in brief: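 Frozen incubation at −7 °C formed the core of a single, triplicate in vitro selection round applied to PCR-built, transcribed mutant libraries of each subunit of a heterodimeric triplet polymerase ribozyme. Extended constructs were gel-excised, captured with streptavidin beads and amplified by RT-PCR, and input and output libraries were Illumina-sequenced with a filter of ≥10 input reads and ≥1 read per output. Fitness is the logarithm of genotype enrichment relative to wild-type enrichment, with inverse-variance-weighted replicate averaging, and the logarithm is base 2.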
row,Variant,polymerase ribozyme fitness (log ratio)
1,GACCAAUAUGCCCUCAGAGCUCGAGAAGAUCUUCGGAUGCAGAGGAGGCAGGCUUCGGUGGCGCGAUAGCGCCAACGUCCUCAACCUCCAAUGCAACCCACCACAUGAUGAUGCCUGAAGAGCCUUGGUUUUUUG [C8A C28G U96A],-3.08
2,GACCAAUAUGCCCUCAGAGCUCGAGAACAUCUUCGGAUGCAGAGGAGGCAGGCUUUGGUGGCGCGAUAGCGCCAACGUCCUCAACCUCCAAUGCAUCCCACCACAUGAUGAUGCCUGAAGAGCCUUGGUUUUUUG [C8A C56U],0.138
3,GACCAAUAUGCCCUCAGAGGUCGAGAACAUCUUCGGAUGCAGAGUAGGCAGGCUUCGGUGGCGCGAUAGCGCUAACGUCCUCAACCUCCAAUGCAUCCCACCACAUGAUGAUGCCUGAAGAGGCUUGGUUUUUUG [C8A C20G G45U C73U C123G],-5.63
4,GACCAAUAUGCCCUCAGAGCUCGAGAAAAUCUUCGGAUGCAGAGAAGGCAGGCUUGGGUGGCGCGAUAUCGCCAACGUCCUCAACCUCCAAUGCAUCCCACCACAUGAUGAUGCCUGAAGAGCCUUGGUUUUUUG [C8A C28A G45A C56G G69U],-2.82
5,GACCAAUAUGGCCUCAGAGCUCGAGAACAUCUUCGGAUGCAGAGGAGGCAGGCUUCGGUGGCGCGAUAGCGCCAACGUCCUCAACCUCCAAUGCAUCCCACCCCAUGAUGAUGCCUGAUAAGCCUUGGUUUUUUG [C8A C11G A103C A119U G120A],-3.31
6,GACCAAUAUGCGCUCAGAGCUCGAGAACAUCUUCGGAUGCAGAGGAGGCAGGCAUCGGUGGCGCGAUAGCGCCAACGUCCUCAACCUCCAAUGCAUCCCACCACAUGAUGAUGCCUGAAGAGCCUUGGUUUUUUG [C8A C12G U54A],0.0252
7,GACCAAUAUGCCGGCAGAGCUCGAGAACAUCUUCGGAUGCAGAGGAGACAGGCUUCGGUGGCGCGAUAGCGCCAACAUCCUCAACCUCCAAUGCAUCCCACCACAUGAUGAUGCCUGAAGAGCCUUGCUUUUUUG [C8A C13G U14G G48A G77A G128C],-5.17
8,GACCAAUAUGCCCUCAGAGCUCGAGAACAUCUUCGGAUGCAGAGGAGGCAGGCUUCGGUGGUGCGAUAGCGCCAACGUCCUCAACCUCCAAUGCAUCCCACCACAUGAUGAUGCCUGAAGAGCCUUGGUUUUUUG [C8A C62U],0.19
9,GACCAAUAUGCUCUCAGAGCUCGAGAACAUCUUCGGAUGCAGAGGCGGCAGGCUUCGGUGGCGCGAUAGCGCCAACGUCCUCAACCUCCAAUACAUCCCACCACAUGAUGAUGCAUGAAGAGCCUUGGUUUUUUG [C8A C12U A46C G93A C115A],0.651
10,GACCAAUAUGCACUCAGAGCUCGAGAACAUCUUCGGAUGCAGAGGAGGCAGGCUUCGGUGGCGCGAUAGUGCCAACCUCCUCAACCUCCAAAGCAUCCCACCACAUGAUGAUGCCUGAAGAGCCUUUGUGAUUUG [C8A C12A C70U G77C U92A G127U U130G U131A],-6.59
11,GACCAAUAUGCCCUCAGAGCUCGAGAACAUCUUCGGAUGCAGAGGAGGCAGGCUUCGGUGGCGCGAUAGCGACAACGUCCUCAACCUCCAAUCCAUCCCACCACAUGAUGAUGCCUGAAGAGCCUUGGUUUUUUG [C8A C72A G93C],0.271
12,GACCAAUAUGCCCUCAGAGCUCGAGAACAUCUUCGGAUGCAGAGGAGGCAGGCUUAGGUGGCGCGAUAGAGCCAACGUCCUCAACCUCCAAUGCAUCUCACCACAUGAUGAUGCCUGAAGAGGCUUGGUUUUUUG [C8A C56A C70A C98U C123G],-1.64
13,GACCAAUAUGCCCUCAGAGCUCGAGAACAUCUUCGGAUGCAGAGGAGGCAGGAUUCGGUGGCGCGAUAGCGCCAACGCCUUCAACCUCCAAUGCAUCCCACCACAUGAUGAUGCCUGAAGAGCCUUGGUUUUUUG [C8A C53A U78C C80U],-0.244
14,GACCAAUAUGCCCUCAGAGCUCGAGAACAUCUUCGGAUGCAGAGGAGGCAGGCUUCGGUGGUGCGAUAGCGCCAACGUCCUCAACCUCCAAUGCAUCCCACCACAUGAUGAUGCCUGCAGAGCCUUGGUUUUUUG [C8A C62U A118C],-2.69
15,GACCAAUAUGCCGUCAGAGCUCGAGAACAUCUUCGGAUGCAGAGGAGGCAGGCUUCGGUGGCGCGAUAGCGCCAACGUCUUCAACCUCCAAUGCAUCCCACCACAUGAUGAUGCCUGAAGAGCCUUGGUUUUUUG [C8A C13G C80U],-0.499
16,GACCAAUAUGCCCUCAGAGCUCGAGAACAUAUUCGGAUGCAGAGGAGGCAGGCUUCGGUGGCGCGAUAGCGCCAACGUCCUCAACCUCCAAUGCAUCCCACCACAUGAUGAUGCCUGAAGAGCCUUGGCUUUUUG [C8A C31A U129C],-5.73
17,GACCAAUAUGCCCUCAGAGCUCGAGAACAUCUUCGGAUGCAGAGGAGGUAGGCUUCGGUGGCGCGAUAGCGCUAACGUCCUCAACCUCCAAUGCAUCCCACCACAUGAUGAUGCCUGAAGAGCCUUGGUAUUUUG [C8A C49U C73U U130A],-0.88
18,GACCAAUAUGCCCUCAGAGCUCGAGAACAUCUUCGGAUGCAGAGGAGGCAGGCUUCGGUGGCGCGAUAGAGCCAACGUCCUCAACCUCCAAUGCAUCCCACCACAUGAUGAUGCCUGAAGAGCCUUGGUUUUUUG [C8A C70A],-0.98
19,GACCAAUAUGCCCUAAGAGCUCGAGAACAUCUUCGGAUGCAGAGGAGGCAGCCUUCGGUGGCGCGAUAGCGCCAACGUCAUCAACCUCCAAUGCAUCCCACCACAUGAUGAUGCCUGAAGAGCCUUGGUUUUUUG [C8A C15A G52C C80A],-4.36
20,GACCAAUAUGCCCUCAGAGCUCGAGAACAUCUUCGGAUGUAGAGGAGGCAGGAUUCGGUGGCGCGAUAGCGCCAACGUCCUCAACCUCCAAUGCAUCCCACCACAUGAUGAUGCCUGAAGAGCCUUGGUUUUUUG [C8A C40U C53A],0.276
21,GACCAAUAUGCCCUUAGAGCUCGAGAACAUCUUCGGAUGCAGAGGACGCAGGCUUCGGUGGCACGAUAGCGCCAACGUCCUCAACCUCCAAUGCAUCACACCACAUGAUGAUGUCUAAAGAGCCUUGGGUUUUUG [C8A C15U G47C G63A C98A C114U G117A U129G],-7.35
